Test results published in US20230144436A1 (DYNE THERAPEUTICS, published 2023).

How the values were obtained:
[1] = molecular target: T1, human transferrin receptor 1 (human, UniProt P02786 89-760, limits assumed); assay: average KD, antibody alone; method not given
T1 construct: also called hTfR1; huTfR1

[2] = molecular target: T2, cynomolgus monkey transferrin receptor 1 (cynomolgus monkey (Macaca fascicularis), UniProt Q5RDH6 89-760 (Pongo abelii entry), limits assumed); assay: average KD, antibody alone; method not given
T2 construct: also called cyTfR1; Cyno TfR1
T2 chain: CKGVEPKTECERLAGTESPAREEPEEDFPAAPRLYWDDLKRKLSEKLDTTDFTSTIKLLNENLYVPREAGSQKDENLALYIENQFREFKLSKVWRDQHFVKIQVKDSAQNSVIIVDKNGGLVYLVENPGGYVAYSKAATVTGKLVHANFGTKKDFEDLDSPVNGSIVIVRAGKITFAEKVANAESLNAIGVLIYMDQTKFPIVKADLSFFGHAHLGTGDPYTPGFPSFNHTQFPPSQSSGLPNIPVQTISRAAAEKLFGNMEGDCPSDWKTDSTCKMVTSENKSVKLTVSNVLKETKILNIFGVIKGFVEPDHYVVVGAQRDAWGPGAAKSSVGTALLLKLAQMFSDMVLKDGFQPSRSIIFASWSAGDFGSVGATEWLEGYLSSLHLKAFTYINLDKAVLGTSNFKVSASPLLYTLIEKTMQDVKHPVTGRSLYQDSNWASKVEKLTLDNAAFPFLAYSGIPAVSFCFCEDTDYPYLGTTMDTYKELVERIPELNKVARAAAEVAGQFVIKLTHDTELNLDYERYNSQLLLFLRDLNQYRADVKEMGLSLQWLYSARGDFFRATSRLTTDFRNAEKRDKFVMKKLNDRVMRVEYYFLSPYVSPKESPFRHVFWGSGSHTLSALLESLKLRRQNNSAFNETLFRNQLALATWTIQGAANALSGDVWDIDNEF

[3] = molecular target: T1, human transferrin receptor 1; assay: Carterra LSA SPR array, IgG captured on anti-IgG lawn, hTfR1 as analyte, 25 C, 1:1 Langmuir fit
Description: Selected anti-TfR1 antibodies were tested for their binding affinity to human TfR1 for measurement of Ka (association rate constant), Kd (dissociation rate constant), and KD (affinity). […] The binding experiment was performed on Carterra LSA at 25 C. An anti-mouse IgG and anti-human IgG antibody “lawn” was prepared on a HC30M chip by amine coupling. 59 IgGs (58 mouse mAbs and 1 human mAb) were captured on the chip. Dilution series of hTfR1, cyTfR1, and hTfR2 were injected to the chip for binding (starting from 1000 nM, 1:3 dilution, 8 concentrations).
Binding data were referenced by subtracting the responses from a buffer analyte injection and globally fitting to a 1:1 Langmuir binding model for estimate of Ka (association rate constant), Kd (dissociation rate constant), and KD (affinity) using the Carterra™ Kinetics software. 5-6 concentrations were used for curve fitting.

B1: 4-J22 (antibody, V domains shown)
VH: EVQLQQSGAELVRSGASVKLSCTASGFNIKDYYIHWVKQRPEQGLEWIGWIDPENADTEYAPKFQGKATMTPDTSSNTAYLQLSSLTSEDTAVYYCYAWDYSMDYWGQGTSVTVSS
VL: DVVMTQTPLSLSVSLGDQASISCRSSQSLVHSNGNTYLHWYLQKPGQSPKLLIYKVSNRFSGVPDRFSGSGSGTDFILKISRVEAEDLGVYFCSQNTHVPYTFGGGTRLEIK
notes: Tested as a mouse monoclonal IgG
Question: With B1 as the binder, how does the Kd [1] read?
Answer: Its Kd is 3.41 nM.

Question: And the Kd [2]?
Answer: Its Kd is 1.37 nM.

B2: 4-C5 (antibody, V domains shown)
VH: QVQLQQSGAELMKPGASVKISCKATGYTFSNYWIEWVKQRPGHGLEWIGEILPGSGSTNYNENFKGKATFTADTSSNTAYMQLSSLTSEDSAVYYCARRGAYGNFHYWGQGTTLTVSS
VL: EIVLTQSPALMAASPGEKVTITCSVSSSISSSNLHWYQQKSETSPKPWIYGTSNLASGVPVRFSGSGSGTSYSLTISSMEAEDAATYYCQQWRSYPYTFGGGTKLEIK
notes: Tested as a mouse monoclonal IgG; also called 4-C05
Question: With B2 as the binder, how does the Kd [1] read?
Answer: Its Kd is 1.38 nM.

Question: What about the Kd [2] of the same binder?
Answer: Its Kd is 13.6 nM.

Question: What about the Kd [3] of the same binder?
Answer: Its Kd is 1.61 nM.

Question: And the kon [3]?
Answer: Its kon is 30100 M⁻¹ s⁻¹.

B3: 8-O17 (antibody, V domains shown)
VH: QVQLKESGPGLVAPSQSLSITCTVSGFSLTNYGVHWVRQPPGKGLEWLVVIWNDGSATYNSALESRLSISKDNSKSQVFLKMNSLQTDDTAMYYCARHESSNPFAYWGQGTLVTVSA
VL: DILLTQSPAILSVSPGERVSFSCRASQSIGTSIHWYQQRTNGSPRLLIKSASESIAGIPSRFSGSGSGTDFTLSINSVESEDIADYYCQQNNRWPYTFGGGTKLEIK
notes: as for B1
Question: Which results are given for B3?
Answer: Kd [1]: 2.24 nM; Kd [2]: 1.1 nM; Kd [3]: 1.83 nM; kon [3]: 49900 M⁻¹ s⁻¹

B4: 8-D15 (antibody, V domains shown)
VH: QVQLKESGPGLVAPSQSLSITCTVSGFSLTSYAITWVRQSPGKGLEWLGLIWTGGGTNYNSALKSRLSISKDNSKSQVFLKMNSLQTDDTARYYCARIYDGYYRYFDVWGTGTTVTVSS
VL: RIVLTQTPKFLLVSAGDRVTMTCKASQSVSNDVAWYQQKPGQSPKLLIYYASNRYTGVPDRFTGSGYGTDFTFTISTVQAEDLAVYFCQQDYSSPWTFGGGTKLEIK
notes: as for B1
Question: Which results are given for B4?
Answer: Kd [1]: 9.15 nM; Kd [2]: 11.1 nM; Kd [3]: 8.22 nM; kon [3]: 31300 M⁻¹ s⁻¹

B5: 8-K6 (antibody, V domains shown)
VH: QVHLQQPGAELVKPGASVKMSCKASGYTFTSYWITWVKQRPGQGLEWIGDIFPNSGRTNYDEKFKSKATLTVDTSSSTAYMQLSSLTSEDSAVYFCAREGNFGSLDYWGQGTTLTVSS
VL: QIVLTQSPAIMSASPGEKVTMTCSANSNLNYMNWYHQKSGTSPKRWIYDTSKLASGVPARFSASGSGTSYSLTISSMEAEDAATYYCQQWSRNPLTFGAGTRLELK
notes: Tested as a mouse monoclonal IgG; also called 8-K06
Question: Which results are given for B5?
Answer: Kd [1]: 0.0678 nM; Kd [2]: 0.376 nM; Kd [3]: 0.0694 nM; kon [3]: 144000 M⁻¹ s⁻¹

B6: 6-D3 (antibody, V domains shown)
VH: QVQLQQPGAELVKPGASVKMSCKASGYTFTRHWITWVKQRPGQGLEWIGDIYPGSGRTNYNEKFKSTATLTVDTSSSTAYMQLSSLTSEDSAVYYCARDGYLYINYFDYWGQGTTLTVSS
VL: ENVLTQSPAIMSASPGEKVTMTCSASSSVSFMHWFQQKSSTSPKLWIYDTSKLASGVPGRFSGSGSGSSYSLTISSMAAEDVATYYCFQGSGYPYTFGGGTKLEIK
notes: Tested as a mouse monoclonal IgG; also called 6-D03
Question: Which results are given for B6?
Answer: Kd [1]: 0.986 nM; Kd [2]: 0.778 nM; Kd [3]: 0.986 nM; kon [3]: 108000 M⁻¹ s⁻¹

B7: 4-O12 (antibody, V domains shown)
VH: EVQLQQSGAELVRPGASVKLSCTASGFNIVDDYMHWVKQRPEQGLEWIGWIYPENADTEYASKFQGKATITADTSSNTAYLQLSSLTSEDTAVYYCTTATGTGWFAYWGQGTLVTVSA
VL: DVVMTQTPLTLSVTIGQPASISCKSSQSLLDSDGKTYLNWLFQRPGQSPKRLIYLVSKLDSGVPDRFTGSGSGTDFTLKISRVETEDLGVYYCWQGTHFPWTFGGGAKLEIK
notes: as for B1
Question: Which results are given for B7?
Answer: Kd [1]: 1.27 nM; Kd [2]: 270 nM; Kd [3]: 1.8 nM; kon [3]: 79800 M⁻¹ s⁻¹

B8: 3-M9 (antibody, V domains shown)
VH: EVQLQQSGAELVRPGASVKLSCTASDFNIKDDYIHWVKQRPEQGLEWIGRIDPANGNTKYAPKFQDKATITADTSSNTAYLQLSSLTSEDTAVYYCALGYTYWGQGTTLTVSS
VL: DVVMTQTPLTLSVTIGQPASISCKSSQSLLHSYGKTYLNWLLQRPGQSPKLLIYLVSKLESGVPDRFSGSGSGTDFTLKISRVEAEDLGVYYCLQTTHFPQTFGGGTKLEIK
notes: Tested as a mouse monoclonal IgG; also called 3-M09
Question: For B8, which Kd [1] is on record?
Answer: The Kd was 2.5 nM.

Question: What about the Kd [2] of the same binder?
Answer: The Kd was 4.37 nM.

Question: What about the Kd [3] of the same binder?
Answer: The Kd was 2.54 nM.

Question: And the kon [3]?
Answer: Its kon is 150000 M⁻¹ s⁻¹.
